Biological target: Mycobacterium tuberculosis MmpL5 (Rv0676c) with a C-terminal 1×FLAG tag (Mycobacterium tuberculosis, UniProt P9WJV1)
Experiment: cryo-EM structure

Mycobacterium tuberculosis MmpL5 (Rv0676c) with a C-terminal 1×FLAG tag, sequence (P9WJV1 whole entry): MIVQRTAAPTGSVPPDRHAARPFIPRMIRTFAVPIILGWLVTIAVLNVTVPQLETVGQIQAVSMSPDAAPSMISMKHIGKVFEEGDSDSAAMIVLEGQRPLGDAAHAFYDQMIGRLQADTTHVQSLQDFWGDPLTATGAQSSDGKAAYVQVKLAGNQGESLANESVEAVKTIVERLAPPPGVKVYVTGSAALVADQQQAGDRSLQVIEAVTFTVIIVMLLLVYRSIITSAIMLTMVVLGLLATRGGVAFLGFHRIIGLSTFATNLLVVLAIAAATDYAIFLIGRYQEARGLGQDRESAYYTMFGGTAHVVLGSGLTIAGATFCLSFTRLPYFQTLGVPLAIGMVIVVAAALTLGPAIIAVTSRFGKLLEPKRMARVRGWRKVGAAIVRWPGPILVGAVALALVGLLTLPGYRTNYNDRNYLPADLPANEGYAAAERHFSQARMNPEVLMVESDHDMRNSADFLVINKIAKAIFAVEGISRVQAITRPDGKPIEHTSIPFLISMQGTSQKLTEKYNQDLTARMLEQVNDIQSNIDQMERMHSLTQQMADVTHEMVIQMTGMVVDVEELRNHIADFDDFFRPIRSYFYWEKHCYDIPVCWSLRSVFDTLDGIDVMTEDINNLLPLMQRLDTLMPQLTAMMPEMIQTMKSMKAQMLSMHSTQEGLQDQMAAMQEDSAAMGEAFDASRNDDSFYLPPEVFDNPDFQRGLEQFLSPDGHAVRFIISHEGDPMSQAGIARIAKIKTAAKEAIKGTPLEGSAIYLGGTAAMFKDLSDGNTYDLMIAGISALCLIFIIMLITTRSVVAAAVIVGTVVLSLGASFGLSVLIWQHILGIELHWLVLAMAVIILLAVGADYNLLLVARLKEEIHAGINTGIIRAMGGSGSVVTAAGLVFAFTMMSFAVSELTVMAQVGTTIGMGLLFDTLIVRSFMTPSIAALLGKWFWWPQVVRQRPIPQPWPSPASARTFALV

B1: Mycobacterium smegmatis acyl carrier protein AcpM (MSMEG_4326) (natural protein)
chain: MAATQEEIIAGLAEIIEEVTGIEPSEVTPEKSFVDDLDIDSLSMVEIAVQTEDKYGVKIPDEDLAGLRTVGDVVAYIQKLEEENPEAAAALREKFAADQ
modifications: 4'-phosphopantetheine (Ppant) covalently attached to Ser41 via a phosphodiester (holo-form)
binding result: binds

Reference: paper PMC12122801 (Nature Communications, 2025)
